Data: patent publication US7153654

Biological target: anti-hCG monoclonal antibody from Organon Teknika
Test: competition: hCG displaces FpepT (5.5×10^-8 M) from anti-hCG Mab (4.5×10^-8 M), fluorescence EX=561 nm EM=590 nm; K1 of the fit

- Kd: 0.49 nM
Substance: human chorionic gonadotrophin (hCG) (from UniProt P01215 25-116; P0DN86 21-165) (ligand)
